Source: patent US20180022822A1, “NOVEL ANTI-FIBROBLAST ACTIVATION PROTEIN (FAP) BINDING AGENTS AND USES THEREOF” (Mabimmune Diagnostics AG, priority 2016, published 2018)

Legend:
[1] = molecular target: T1, active recombinant human FAP (Homo sapiens, UniProt Q12884); assay: DQ-gelatin cleavage inhibition, active recombinant human FAP; assay type: biochemical
T1 construct: purchased Sino Biologicals 10464-H07H
T1 sequence (Q12884 26-760 limits assumed): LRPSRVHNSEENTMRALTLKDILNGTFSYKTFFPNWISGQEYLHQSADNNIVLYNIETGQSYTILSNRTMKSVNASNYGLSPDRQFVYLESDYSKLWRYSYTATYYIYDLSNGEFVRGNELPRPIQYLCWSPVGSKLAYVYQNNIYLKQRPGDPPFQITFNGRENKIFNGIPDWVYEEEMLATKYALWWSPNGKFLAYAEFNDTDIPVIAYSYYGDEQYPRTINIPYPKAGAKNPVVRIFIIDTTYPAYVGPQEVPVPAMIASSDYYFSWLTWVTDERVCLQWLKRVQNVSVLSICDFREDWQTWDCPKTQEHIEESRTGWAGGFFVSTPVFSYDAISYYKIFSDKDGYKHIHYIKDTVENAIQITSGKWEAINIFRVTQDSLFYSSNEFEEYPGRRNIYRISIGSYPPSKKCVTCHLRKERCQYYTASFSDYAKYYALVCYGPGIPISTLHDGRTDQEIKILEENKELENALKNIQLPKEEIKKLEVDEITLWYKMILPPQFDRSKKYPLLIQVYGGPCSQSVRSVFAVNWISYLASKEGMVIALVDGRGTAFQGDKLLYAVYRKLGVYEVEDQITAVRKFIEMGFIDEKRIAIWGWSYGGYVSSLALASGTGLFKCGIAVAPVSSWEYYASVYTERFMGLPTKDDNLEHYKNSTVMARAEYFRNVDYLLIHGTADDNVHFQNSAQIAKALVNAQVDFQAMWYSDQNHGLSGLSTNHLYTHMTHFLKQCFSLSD
Protocol: A black flat bottom standard 96-well ELISA plate was blocked for 1 hour at 37° C. using sterile blocking buffer: 5% bovine serum albumin (BSA) in phosphate buffered saline (PBS). The blocking buffer was removed and replaced with: 40 μL of fresh blocking buffer, 40 μL of antibody in PBS, 10 μL of 20 nM active recombinant human FAP (Sino Biologicals, 10464-H07H) in PBS, and 10 μL of DQ-Gelatin (Molecular Probes, D-12054) in PBS. Fluorescence intensity was measured at 485 nm excitation and 530 nm emission every 3 min over a total time of 45 min, while gently shaking the plate for twenty seconds before every measurement. To calculate the fractional activity, the steady state velocity (Δ 530 nm emission/Δ time) […].
To determine the inhibitory ability of NI-206.82C2 against active recombinant human FAP (Sino Biologicals, 10464-H07H) a black 96 well ELISA plate was blocked for 1 h at 37° C. with sterile 5% BSA in PBS. After removing the blocking solution, 40 uL of 12.5% BSA in PBS was added to each well. Then FAP-targeting agents (NI-206.82C2, F19, and Val-Boro-Pro (PT-100; Point therapeutics)) were added to the appropriate wells for a final concentration of 500, 10, 3.03, 1.01, 0.031, 0.001, and 0 nM. 10 uL of active recombinant human FAP was then added to all the wells for a final assay concentration of 20 nM. […]

MC38 colorectal tumors = assay: orthotopic syngeneic MC38 colorectal cancer model, MRI; assay type: in vivo, mouse; conditions: 20 mg/kg i.p. every 72 hours, 5 cycles, versus PBS
Protocol: […] mice were anesthetized by isofluorane inhalation, and the hepatic portal vein was accessed by median laparotomy (from xiphoid 4 cm caudally). Mice were injected with 1 million murine MC38 colorectal cancer cells. The origin of these cell is described in Science 19 Sep. 1986. MC-38 tumors were allowed to form for 7 days before treatment. Mice were treated with either PBS or NI-206.82C2 (20 mg/kg by intraperitoneal injection) every 72 hours for 5 treatment cycles, before being anesthetized by isofluourane inhalation. Small animal MRI imaging was performed using a Bruker 4.7 Tesla MRI to aquire images of liver metastases. Tumor images were analyzed on Myrian Software (Intrasense) to quantify tumor metastases and cumulative tumor diameter overall tumor burden.

4T1 breast tumor = conditions: mouse, in vivo
Protocol: A murine cancer model was generated by the injection of 100′000 4T1 cultured breast tumor cells orthotopically into the 2nd left breast of Balb/c immunocompetent mice and allowed to grow for 7 days. Prior to in vivo imaging, the animals were shaved and de-epilated to remove fur for minimal absorbance and scattering of the incident optical light. In-vivo imaging was performed with the Maestro 500 imaging system (Cambridge Research Inc, Woburn, USA). For A680-82C2 detection, a band pass filter from 615 nm-665 nm and a highpass filter over 700 nm were used for excitation and emission light respectively, and fluorescence was detected by a CCD camera (cooled to 11° C.). A series of images were acquired at different wavelengths and then subjected to spectral unmixing (deconvolution of collected optical spectra; this enabled the unmixing of the Alexa680 fluorescence pattern from tissue auto-fluorescence and other spectral contributions).
Whole mice images were acquired at the following timepoints: before antibody injection, immediately after antibody injection, 6 h, 24 h, 48 h, and 6 d after antibody injection.

B1: NI-206.82C2: human-derived recombinant anti-FAP antibody; VH SEQ ID NO: 2 or 4 (PIMC), VL SEQ ID NO: 6 (antibody, V domains shown)
VH: QVQLQQSGPGLVKPSQTLSLTCAISGDSVSSNSVTWNWIRQSPSRGLEWLGRTYYRSKWYNDYAVSVKGRITINPDTSKNQFYLQLKSVTPEDAAVYYCARDSSILYGDYWGQGTLVTVSS
VL: QAVLTQPSSLSASPGASASLTCTLPSGINVGTYRIFWFQQKPGSPPQYLLSYKSDSDNHQGSGVPSRFSGSKDASANAGILLISGLQSEDEADYYCMIWHSSAWVFGGGTKLTVL
What does the source list for B1?
potency for inhibiting active recombinant human FAP compared to Val-boro-Pro and F19 [1]: higher potency; cumulative tumor diameter (MC38 colorectal tumors): reduced; number of metastases (MC38 colorectal tumors): reduced; antibody concentration after 6 d post antibody injection (4T1 breast tumor): declines to almost zero
